Test results: patent publication US9580464B2, “Anti-inflammatory proteins and peptides and methods of preparation and use thereof” (ManukaMed Limited, priority 2012, dated 2017)
Each block holds one molecule with its values, some of them ahead of it.

Assays:
[1] = target: Cathepsin B from bovine spleen (Bos taurus, UniProt P07688); test: Assay for Cathepsin B activity / inhibition (Z-Lys-pNP substrate, absorbance 330 nm); assay type: biochemical
[2] = Anti-inflammatory activity of MGO-modified proteins (results not shown)
Source text: As used herein, “anti-inflammatory capacity” is defined as the capacity to clinically reduce inflammation or the symptoms of inflammation in cellular tissue. Anti-inflammatory capacity may be determined using the phagocytosis inhibition assay (PIA) described in PCT/NZ PCT/NZ/2011/000271 or the DCFDA assay also described in PCT/NZ/2011/000271 or the anti-inflammatory capacity may also be determined by the inhibition of Cathepsin B as described in detail below.

[3] = Table 6, MRJP1 derived synthetic peptides, MGO-modified
[4] = Table 6, MRJP1 derived synthetic peptides, unmodified
[5] = Table 8, MRJP5 derived synthetic peptides, MGO-modified
[6] = Table 8, MRJP5 derived synthetic peptides, unmodified
[7] = Table 1, peptides from C-terminus of MRJP1, 2 mM MGO-modified peptide
[8] = Table 1, peptides from C-terminus of MRJP1, 2 mM unmodified peptide
[9] = Table 9, additional synthetic peptides, MGO-modified
[10] = Table 9, additional synthetic peptides, unmodified
[11] = Table 3, peptides from C-terminus of MRJP3, 2 mM MGO-modified peptide
[12] = Table 3, peptides from C-terminus of MRJP3, 2 mM unmodified peptide

Cathepsin B remaining activity (% of control) [1, 3]: 78.51 ± 2.51
Cathepsin B remaining activity (% of control) [1, 4]: 120.52 ± 8.17
Molecule: Ac-CDR-OH (Ac-Cys-Asp-Arg-OH) [MRJP1 derived synthetic peptide]

Cathepsin B remaining activity (% of control) [1, 3]: 44.78 ± 1.54
Cathepsin B remaining activity (% of control) [1, 4]: 85.57 ± 3.51
Molecule: Ac-FDR-OH (Ac-Phe-Asp-Arg-OH) [MRJP1 derived synthetic peptide]

Cathepsin B remaining activity (% of control) [1, 3]: 105.35 ± 5.73
Cathepsin B remaining activity (% of control) [1, 4]: 148.84 ± 16.13
Molecule: Ac-FTK-OH (Ac-Phe-Thr-Lys-OH) [MRJP1 derived synthetic peptide]

Cathepsin B remaining activity (% of control) [1, 3]: 106.82 ± 3.02
Cathepsin B remaining activity (% of control) [1, 4]: 171.58 ± 11.29
Molecule: Ac-HNIR-OH [MRJP1 derived synthetic peptide]

Cathepsin B remaining activity (% of control) [1, 5]: 81.75 ± 3.26
Cathepsin B remaining activity (% of control) [1, 6]: 93.46 ± 12.24
Molecule: Ac-IDR-OH (Ac-Ile-Asp-Arg-OH) [MRJP5 derived synthetic peptide]

Cathepsin B remaining activity (% of control) [1, 7]: 92.82 ± 5.44
Cathepsin B remaining activity (% of control) [1, 8]: 133.11 ± 4.29
Molecule: Ac-KISI-OH [synthetic peptide derived from the C-terminus of MRJP1]

Cathepsin B remaining activity (% of control) [1, 9]: 72.56
Cathepsin B remaining activity (% of control) [1, 10]: 65.39 ± 2.75
Molecule: Ac-LIR-NH2 (Ac-Leu-Ile-Arg-NH2) [synthetic peptide derived from MRJP2, 4 (see Leu408), amidated C-terminus]

Cathepsin B inhibition after MGO modification ([1]; MGO-modified synthetic peptides): particularly potent activity
Cathepsin B remaining activity (% of control) [1, 9]: 0.07
Cathepsin B remaining activity (% of control) [1, 10]: 128.28 ± 2.50
Molecule: Ac-LIR-OH (Ac-Leu-Ile-Arg-OH) [synthetic peptide derived from MRJP2, 4 (see Leu408)]

Cathepsin B remaining activity (% of control) [1, 9]: 136.90
Cathepsin B remaining activity (% of control) [1, 10]: 159.34 ± 2.34
Molecule: Ac-LLK-NH2 (Ac-Leu-Leu-Lys-NH2) [synthetic peptide derived from MRJP1, 2, 4, amidated C-terminus]

Cathepsin B remaining activity (% of control) [1, 9]: 147.60
Cathepsin B remaining activity (% of control) [1, 10]: 141.56 ± 13.90
Molecule: Ac-LLK-OH (Ac-Leu-Leu-Lys-OH) [synthetic peptide derived from MRJP1, 2, 4]

Cathepsin B remaining activity (% of control) [1, 5]: 90.15 ± 1.52
Cathepsin B remaining activity (% of control) [1, 6]: 102.05 ± 10.32
Molecule: Ac-LQK-OH (Ac-Leu-Gln-Lys-OH) [MRJP5 derived synthetic peptide]

Cathepsin B remaining activity (% of control) [1, 9]: 80.03
Cathepsin B remaining activity (% of control) [1, 10]: 92.71 ± 7.78
Molecule: Ac-LVK-NH2 (Ac-Leu-Val-Lys-NH2) [synthetic peptide derived from MRJP3 (see Leu170), amidated C-terminus]

Cathepsin B remaining activity (% of control) [1, 9]: 80.84
Cathepsin B remaining activity (% of control) [1, 10]: 143.92 ± 3.15
Molecule: Ac-LVK-OH (Ac-Leu-Val-Lys-OH) [synthetic peptide derived from MRJP3 (see Leu170)]

Cathepsin B remaining activity (% of control) [1, 5]: 99.38 ± 1.63
Cathepsin B remaining activity (% of control) [1, 6]: 109.67 ± 3.13
Molecule: Ac-MDK-OH (Ac-Met-Asp-Lys-OH) [MRJP5 derived synthetic peptide]

Cathepsin B remaining activity (% of control) [1, 5]: 88.56 ± 2.14
Cathepsin B remaining activity (% of control) [1, 6]: 107.34 ± 1.46
Molecule: Ac-MDR-OH (Ac-Met-Asp-Arg-OH) [MRJP5 derived synthetic peptide]

Cathepsin B remaining activity (% of control) [1, 5]: 90.13 ± 17.28
Cathepsin B remaining activity (% of control) [1, 6]: 101.26 ± 4.59
Molecule: Ac-MHR-OH (Ac-Met-His-Arg-OH) [MRJP5 derived synthetic peptide]

Cathepsin B remaining activity (% of control) [1, 3]: 69.15 ± 4.87
Cathepsin B remaining activity (% of control) [1, 4]: 121.24 ± 3.57
Molecule: Ac-MQK-OH (Ac-Met-Gln-Lys-OH) [MRJP1 derived synthetic peptide]

Cathepsin B remaining activity (% of control) [1, 3]: 118.90 ± 5.62
Cathepsin B remaining activity (% of control) [1, 4]: 126.30 ± 8.12
Molecule: Ac-MTR-OH (Ac-Met-Thr-Arg-OH) [MRJP1 derived synthetic peptide]

Cathepsin B remaining activity (% of control) ([1]; Table 2, peptides from C-terminus of MRJP2, 2 mM MGO-modified peptide): 102.36 ± 6.36
Cathepsin B remaining activity (% of control) ([1]; Table 2, peptides from C-terminus of MRJP2, 2 mM unmodified peptide): 282.39 ± 19.66
Molecule: Ac-NQKN-OH [synthetic peptide derived from the C-terminus of MRJP2]

Cathepsin B remaining activity (% of control) [1, 7]: 91.45 ± 0.11
Cathepsin B remaining activity (% of control) [1, 8]: 152.05 ± 13.20
Molecule: Ac-PFKI-OH [synthetic peptide derived from the C-terminus of MRJP1]

Cathepsin B remaining activity (% of control) [1, 11]: 67.57 ± 1.73
Cathepsin B remaining activity (% of control) [1, 12]: 146.35 ± 2.91
Molecule: Ac-SKLH-OH [synthetic peptide derived from the C-terminus of MRJP3]

Cathepsin B remaining activity (% of control) [1, 11]: 107.49 ± 4.29
Cathepsin B remaining activity (% of control) [1, 12]: 118.71 ± 9.09
Molecule: Ac-SSKS-OH

Cathepsin B remaining activity (% of control) [1, 5]: 92.75 ± 2.41
Cathepsin B remaining activity (% of control) [1, 6]: 100.51 ± 10.69
Molecule: Ac-TDK-OH (Ac-Thr-Asp-Lys-OH) [MRJP5 derived synthetic peptide]

Cathepsin B remaining activity (% of control) [1, 5]: 91.72 ± 0.84
Cathepsin B remaining activity (% of control) [1, 6]: 96.48 ± 2.03
Molecule: Ac-TNR-OH (Ac-Thr-Asn-Arg-OH) [MRJP5 derived synthetic peptide]

Cathepsin B remaining activity (% of control) [1, 5]: 68.49 ± 8.73
Cathepsin B remaining activity (% of control) [1, 6]: 99.83 ± 3.40
Molecule: Ac-VNR-OH (Ac-Val-Asn-Arg-OH) [MRJP5 derived synthetic peptide]

Cathepsin B remaining activity (% of control) [1, 3]: 99.05 ± 7.78
Cathepsin B remaining activity (% of control) [1, 4]: 93.14 ± 2.42
Molecule: Ac-YINR-OH [MRJP1 derived synthetic peptide]

Cathepsin B remaining activity (% of control) [1, 3]: 96.01 ± 6.45
Cathepsin B remaining activity (% of control) [1, 4]: 165.10 ± 0.38
Molecule: H-CDR-OH (H-Cys-Asp-Arg-OH) [MRJP1 derived synthetic peptide]

Cathepsin B remaining activity (% of control) [1, 3]: 71.18 ± 2.22
Cathepsin B remaining activity (% of control) [1, 4]: 174.56 ± 11.96
Molecule: H-FDR-OH (H-Phe-Asp-Arg-OH) [MRJP1 derived synthetic peptide]

Cathepsin B remaining activity (% of control) [1, 3]: 76.59 ± 2.24
Cathepsin B remaining activity (% of control) [1, 4]: 147.63 ± 0.70
Molecule: H-FTK-OH (H-Phe-Thr-Lys-OH) [MRJP1 derived synthetic peptide]

Cathepsin B remaining activity (% of control) [1, 3]: 103.38 ± 3.65
Cathepsin B remaining activity (% of control) [1, 4]: 151.51 ± 0.62
Molecule: H-HNIR-OH [MRJP1 derived synthetic peptide]

Cathepsin B remaining activity (% of control) [1, 5]: 85.60 ± 5.32
Cathepsin B remaining activity (% of control) [1, 6]: 98.02 ± 2.54
Molecule: H-IDR-OH (H-Ile-Asp-Arg-OH) [MRJP5 derived synthetic peptide]

Cathepsin B remaining activity (% of control) [1, 5]: 95.26 ± 5.54
Cathepsin B remaining activity (% of control) [1, 6]: 102.47 ± 4.27
Molecule: H-LQK-OH (H-Leu-Gln-Lys-OH) [MRJP5 derived synthetic peptide]

Cathepsin B remaining activity (% of control) [1, 5]: 70.62 ± 12.34
Cathepsin B remaining activity (% of control) [1, 6]: 104.25 ± 2.73
Molecule: H-MDK-OH (H-Met-Asp-Lys-OH) [MRJP5 derived synthetic peptide]

Cathepsin B remaining activity (% of control) [1, 5]: 74.46 ± 0.97
Cathepsin B remaining activity (% of control) [1, 6]: 101.73 ± 2.37
Molecule: H-MDR-OH (H-Met-Asp-Arg-OH) [MRJP5 derived synthetic peptide]

Cathepsin B remaining activity (% of control) [1, 5]: 80.66 ± 6.19
Cathepsin B remaining activity (% of control) [1, 6]: 96.77 ± 9.26
Molecule: H-MHR-OH (H-Met-His-Arg-OH) [MRJP5 derived synthetic peptide]

Cathepsin B remaining activity (% of control) [1, 3]: 99.48 ± 2.95
Cathepsin B remaining activity (% of control) [1, 4]: 127.00 ± 0.93
Molecule: H-MQK-OH (H-Met-Gln-Lys-OH) [MRJP1 derived synthetic peptide]

Cathepsin B remaining activity (% of control) [1, 3]: 104.39 ± 2.68
Cathepsin B remaining activity (% of control) [1, 4]: 143.48 ± 2.33
Molecule: H-MTR-OH (H-Met-Thr-Arg-OH) [MRJP1 derived synthetic peptide]

Cathepsin B remaining activity (% of control) [1, 5]: 87.53 ± 3.26
Cathepsin B remaining activity (% of control) [1, 6]: 103.18 ± 4.50
Molecule: H-TDK-OH (H-Thr-Asp-Lys-OH) [MRJP5 derived synthetic peptide]

Cathepsin B remaining activity (% of control) [1, 5]: 91.86 ± 3.50
Cathepsin B remaining activity (% of control) [1, 6]: 102.61 ± 5.34
Molecule: H-TNR-OH (H-Thr-Asn-Arg-OH) [MRJP5 derived synthetic peptide]

Cathepsin B remaining activity (% of control) [1, 5]: 82.63 ± 7.88
Cathepsin B remaining activity (% of control) [1, 6]: 97.75 ± 10.62
Molecule: H-VNR-OH (H-Val-Asn-Arg-OH) [MRJP5 derived synthetic peptide]

Cathepsin B remaining activity (% of control) [1, 3]: 79.21 ± 2.12
Cathepsin B remaining activity (% of control) [1, 4]: 142.33 ± 3.64
Molecule: H-YINR-OH [MRJP1 derived synthetic peptide]

Molecule: MGO-modified bovine serine albumin: bovine serum albumin reacted with methylglyoxal, comparison protein [reference compound]
Anti-inflammatory activity [2]: no anti-inflammatory activity

B1: MGO-modified MRJP1: major royal jelly protein 1 (apalbumin 1) chemically modified by methylglyoxal (protein, UniProt O18330 20-432, looked up)
Major royal jelly protein 1: NILRGESLNKSLPILHEWKFFDYDFGSDERRQDAILSGEYDYKNNYPSDIDQWHDKIFVTMLRYNGVPSSLNVISKKVGDGGPLLQPYPDWSFAKYDDCSGIVSASKLAIDKCDRLWVLDSGLVNNTQPMCSPKLLTFDLTTSQLLKQVEIPHDVAVNATTGKGRLSSLAVQSLDCNTNSDTMVYIADEKGEGLIVYHNSDDSFHRLTSNTFDYDPKFTKMTIDGESYTAQDGISGMALSPMTNNLYYSPVASTSLYYVNTEQFRTSDYQQNDIHYEGVQNILDTQSSAKVVSKSGVLFFGLVGDSALGCWNEHRTLERHNIRTVAQSDETLQMIASMKIKEALPHVPIFDRYINREYILVLSNKMQKMVNNDFNFDDVNFRIMNANVNELILNTRCENPDNDRTPFKISIHL
modifications: methylglyoxal-modified
notes: major royal jelly protein 1 (apalbumin 1) chemically modified by methylglyoxal
Anti-inflammatory activity [2]: enhanced anti-inflammatory properties
